Laboratory results as given in patent US20200102347A1 (AUCTUS BIOLOGIES, published 2020).
No end group written: not given here. *: point of attachment. RhodamineB = CCN(CC)c1ccc2c(-c3ccccc3C(=O)*)c3ccc(=[N+](CC)CC)cc-3oc2c1

B1: RPtag(small) Nd2, e18a (peptide)
peptide: RhodamineB-KIPNFIPAELKLITKANVQ
B2: RPtag(small) Nd2 (peptide)
peptide: RhodamineB-KIPNFIPAELKLITKENVQ
B3: RPtag(small) Nd2, k3r, p5a, e18a (peptide)
peptide: RhodamineB-RIANFIPAELKLITKANVQ
B4: RPtag(small) e2a (peptide)
peptide: RhodamineB-GAKIPNFIPAELKLITKENVQ
B5: RPtag(small) e11a (peptide)
peptide: RhodamineB-GEKIPNFIPAALKLITKENVQ
B6: RPtag(small) e18a (peptide)
peptide: RhodamineB-GEKIPNFIPAELKLITKANVQ
B7: RPtag(small) f7a (peptide)
peptide: RhodamineB-GEKIPNAIPAELKLITKENVQ
B8: RPtag(small) k3a (peptide)
peptide: RhodamineB-GEAIPNFIPAELKLITKENVQ
B9: RPtag(small) k17a (peptide)
peptide: RhodamineB-GEKIPNFIPAELKLITAENVQ
B10: RPtag(small) l14a (peptide)
peptide: RhodamineB-GEKIPNFIPAELKAITKENVQ
B11: RPtag(small) Nd3 (peptide)
peptide: RhodamineB-IPNFIPAELKLITKENVQ
B12: RPtag(small) Nd4 (peptide)
peptide: RhodamineB-PNFIPAELKLITKENVQ
B13: RPtag(small) Nd5 (peptide)
peptide: RhodamineB-NFIPAELKLITKENVQ
B14: RPtag(small) Nd6 (peptide)
peptide: RhodamineB-FIPAELKLITKENVQ
B15: RPtag(small) Nd7 (peptide)
peptide: RhodamineB-IPAELKLITKENVQ
B16: RPtag(small) Nd8 (peptide)
peptide: RhodamineB-PAELKLITKENVQ
B17: RPtag(small) Nd9 (peptide)
peptide: RhodamineB-AELKLITKENVQ
B18: RPtag(small) Nd10 (peptide)
peptide: RhodamineB-ELKLITKENVQ
B19: RPtag(small) Nd11 (peptide)
peptide: RhodamineB-LKLITKENVQ
B20: RPtag(small) Nd12 (peptide)
peptide: RhodamineB-KLITKENVQ
B21: RPtag(small) Nd13 (peptide)
peptide: RhodamineB-LITKENVQ
B22: RPtag(small) Cd5 (peptide)
peptide: RhodamineB-GEKIPNFIPAELKLIT
B23: RPtag(small) Cd6 (peptide)
peptide: RhodamineB-GEKIPNFIPAELKLI
B24: RPtag(small) Cd7 (peptide)
peptide: RhodamineB-GEKIPNFIPAELKL
B25: RPtag(small) Nd10, Cd3 (peptide)
peptide: RhodamineB-ELKLITKE
B26: RPtag(small) Nd10, Cd3, e18a (peptide)
peptide: RhodamineB-ELKLITKA
B27: RPtag(small) Nd10, Cd5 (peptide)
peptide: RhodamineB-ELKLIT
B28: RPtag(small) Nd8, Cd3 (peptide)
peptide: RhodamineB-PAELKLITKE
B29: RPtag(small) Nd8, Cd3, e18a (peptide)
peptide: RhodamineB-PAELKLITKA
B30: RPtag(small) Nd6, Cd3 (peptide)
peptide: RhodamineB-FIPAELKLITKE
B31: RPtag(small) Nd6, Cd3, e18a (peptide)
peptide: RhodamineB-FIPAELKLITKA
B32: RPtag(small) Nd6, Cd4 (peptide)
peptide: RhodamineB-FIPAELKLITK
B33: RPtag(small) Nd3, p5a, e18a (peptide)
peptide: RhodamineB-IANFIPAELKLITKANVQ
B34: RPtag(small) Nd2, k3a, p5a (peptide)
peptide: RhodamineB-AIANFIPAELKLITKENVQ

What was measured:
[1] = target: T1, NativeRPtag(large)_with_Tags_and_Cys (Thermoanaerobacter tengcongensis); experiment: fluorescence anisotropy
T1 construct: Unlabeled in anisotropy assays; coupled through the engineered N-terminal Cys to SulfoLink agarose or maleimide plates in column, pull-down and ELISA assays
T1 chain: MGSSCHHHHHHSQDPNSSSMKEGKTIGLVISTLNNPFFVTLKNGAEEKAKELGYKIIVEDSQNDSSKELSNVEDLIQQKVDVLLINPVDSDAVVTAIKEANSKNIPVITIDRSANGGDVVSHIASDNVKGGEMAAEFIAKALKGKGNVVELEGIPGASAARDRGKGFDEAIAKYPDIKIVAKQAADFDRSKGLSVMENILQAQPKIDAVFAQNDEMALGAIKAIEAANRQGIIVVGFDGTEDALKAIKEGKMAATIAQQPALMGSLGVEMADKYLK

[2] = target: T1, NativeRPtag(large)_with_Tags_and_Cys; experiment: calculated from koff and Kd
[3] = target: T1, NativeRPtag(large)_with_Tags_and_Cys; experiment: fluorescence anisotropy, competitor chase
[4] = target: T1, NativeRPtag(large)_with_Tags_and_Cys; experiment: fluorescence anisotropy, association kinetics

| Molecule | Kd [1] [nM] | kon [2] [M⁻¹ s⁻¹] | koff [3] [s⁻¹] | Keq (S-S*) [4] | kf (S to S*) [4] [min⁻¹] | kr (S* to S) [4] [min⁻¹] |
| --- | --- | --- | --- | --- | --- | --- |
| RPtag(small) Nd2, k3a, e18a (peptide) | 0.88 | 433000 | 0.000533 |  |  |  |
| B1 | 0.13 | 1.08e+06 | 0.000138 | 0.4 | 0.044 | 0.13 |
| B2 | 0.067 | 883000 | 5.83e-05 | 0.7 | 0.063 | 0.086 |
| B3 | 0.26 | 567000 | 0.000217 |  |  |  |
| B4 | 0.1 | 850000 | 8.83e-05 | 1.9 | 0.084 | 0.044 |
| B5 | 0.8 | 76700 | 0.000112 | 1.9 | 0.08 | 0.042 |
| B6 | 0.056 | 2.67e+06 | 0.000145 | 1.1 | 0.054 | 0.048 |
| B7 | 2 | 517000 | 0.00105 | 2.2 | 0.08 | 0.036 |
| B8 | 0.49 | 183000 | 8.83e-05 |  |  |  |
| B9 | 0.54 | 167000 | 9.5e-05 |  |  |  |
| B10 | 8.9 |  | > 0.0333 | 1.8 | 0.075 | 0.044 |
| B11 | 0.14 | 1.47e+06 | 0.0002 |  |  |  |
| B12 | 0.3 | 1.57e+06 | 0.000467 |  |  |  |
| B13 | 0.59 | 1.6e+06 | 0.000933 |  |  |  |
| B14 | 0.54 | 2e+06 | 0.00108 |  |  |  |
| B15 | 2.4 | 300000 | 0.0007 |  |  |  |
| B16 | 0.59 | 1.55e+06 | 0.000917 |  |  |  |
| B17 | 4.9 | 1.37e+06 | 0.00667 |  |  |  |

| Molecule | Kd [1] [nM] | kon [2] [M⁻¹ s⁻¹] | koff [3] [s⁻¹] | Keq (S-S*) [4] | kf (S to S*) [4] [min⁻¹] | kr (S* to S) [4] [min⁻¹] |
| --- | --- | --- | --- | --- | --- | --- |
| B18 | 5.9 | 717000 | 0.00417 |  |  |  |
| B19 | 16 | 1.18e+06 | 0.02 |  |  |  |
| B20 | 520 |  | > 0.0333 |  |  |  |
| B21 | 84000 |  | > 0.0333 |  |  |  |
| B22 | 3.6 | 1.83e+06 | 0.0065 |  |  |  |
| B23 | 200 |  | > 0.0333 |  |  |  |
| B24 | 30000 |  | > 0.0333 |  |  |  |
| B25 | 57 |  | > 0.0333 |  | 0.32 | 0.05 |
| B26 | 71 |  | > 0.0333 |  |  |  |
| B27 | 250 |  | > 0.0333 |  |  |  |
| B28 | 11 |  | > 0.0333 | 6.5 | 0.095 | 0.015 |
| B29 | 13 |  | > 0.0333 |  |  |  |
| B30 | 7.3 |  | > 0.0333 |  |  |  |
| B31 | 8.2 |  | > 0.0333 |  |  |  |
| B32 | 9.9 |  | > 0.0333 |  |  |  |
| B33 | 0.63 | 1.53e+06 | 0.000967 |  |  |  |
| B34 | 0.55 | 400000 | 0.00015 |  |  |  |
